Measured values from patent US20200277377A1 (WUXI BIOLOGICS SHANGHAI, published 2020).
Positions count from the first letter of the chain named.

T1: biotinylated human CTLA-4 (Example 3 FACS competition) (human, UniProt P16410 36-161, limits assumed, biotinylated (sites not given))
T1 sequence (looked up): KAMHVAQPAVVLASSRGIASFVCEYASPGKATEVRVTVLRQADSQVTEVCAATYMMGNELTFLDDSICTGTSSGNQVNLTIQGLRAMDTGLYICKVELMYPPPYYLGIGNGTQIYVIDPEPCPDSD

T2: human CTLA-4 (Example 3 ELISAs, construct not stated) (human, UniProt P16410 36-161)
T2 sequence (looked up): T1 sequence (looked up)

T3: human CTLA-4.ECD-6×His (human, UniProt P16410 36-161)
T3 construct: extracellular domain; also called WBP316.hCTLA-4.ECD-6×His; hCTLA4-His (WT)
T3 sequence: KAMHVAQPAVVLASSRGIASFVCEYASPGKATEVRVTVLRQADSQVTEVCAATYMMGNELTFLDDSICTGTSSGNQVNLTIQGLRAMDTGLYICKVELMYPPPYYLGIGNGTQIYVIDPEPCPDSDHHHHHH

T4: full length human CTLA-4 on cells (human, UniProt P16410 36-223)
T4 construct: whole, on cells; also called CTLA-4-expressing cell line
T4 sequence (looked up): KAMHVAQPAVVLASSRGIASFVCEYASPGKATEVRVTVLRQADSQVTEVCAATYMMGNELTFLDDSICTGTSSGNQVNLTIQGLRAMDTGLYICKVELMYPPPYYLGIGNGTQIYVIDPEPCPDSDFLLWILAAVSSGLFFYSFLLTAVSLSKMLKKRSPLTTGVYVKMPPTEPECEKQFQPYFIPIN

T5: monkey CTLA-4 (Example 3 ELISA, construct not stated) (cynomolgus monkey, UniProt G7PL88 36-161)
T5 construct: also called cyno CTLA-4
T5 sequence: T1 sequence (looked up) with S14N, I18T, L106M

B1: W3162-1.101.2 xAb.IgG1 (antibody, V domains shown)
VH: EEQLVESGGGLVQPGKSLKLSCSASGFTFRSSAMHWIRQPPGKGLDWVAFISSGGDTAYADAVKGRFIVSRDNAENTLFLQLNSLKSEDTAIYYCVRMERIPTWGQGVMVTVSS
VL: DIVLTQSPVLAVSLGQRATISCRASQSVSISSINLIHWYQQRPGQQPKLLIYRTSNLASGIPARFSGSGSGTDFTLSIDPVQADDVADYYCQQSRESPLTFGSGTKLEIK
notes: Chimeric: rat variable regions fused with constant region of human antibody (label xAb.IgG1)
B2: W3162-1.145.10 xAb.IgG1 (antibody, V domains shown)
VH: EVQLVESGGGLVQPGRSLKLSCAASDLTFSNYDMAWVRQTPTKGLEWVASISPNGGNTYYRDSVKGRFTVSRDNAKNSLYLQMDSLRSEDTATYYCARHLWFAYWGQGTLVTVSS
VL: DIQMTQSPSSMSASLGDRVTISCQASQDIGSNLIWFQQKPGKSPRPMIYYATHLADGVPSRFSGSRSGSDYSLTISSLESEDVADYHCLQYKQYPRTFGGGTKLELK
notes: as for B1
B3: W3162-1.146.19 xAb.IgG1 (antibody, V domains shown)
VH: EVQLQESGPGLVKPSQSLSLTCSVTYHTITSGYDWTWIRKFPGNQMEWMGYISYSGNTNYNPSLKSRISITRDTSKNQFFLHLNSVTSEDTATYYCASMMVPHYYVMDAWGQGASVTVSS
VL: DVVLTQTPPTSSATIGQSVSISCRSSQSLLNSDGNTYLYWYLQRPSQSPQLLIYLVSKLGSGVPNRFSGSGSGTDFTLKISGVEAEDLGLYYCVQGTHDPWTFGGGTKLELK
notes: as for B1
B4: W3162-1.154.8 xAb.IgG1 (antibody, V domains shown)
VH: EVQLQQSGPEAGRPGSSVKISCKASGYTFTNYFMNWVKQSPGQGLEWIGRVDPENGRADYAEKFKKKATLTADTTSNTAYIHLSSLTSEDTATYFCARRAMDNYGFAYWGQGTLVTVSS
VL: EIMLTQSPTIMAASLGEKITITCSANSSLSYMYWFQQKSGASPKLWVHGTSNLASGVPDRFSGSGSGTSYYLTINTMEAEDAATYFCHHWSNTQWTFGGGTKLELK
notes: as for B1
B5: W3162_1.145.10-z7-uAb.IgG1K (antibody, V domains shown)
VH: B2 VH with R16G, K19R, T40A, T42G, N54S, V70I, D84N, S88A, T93V
VL: DIQMTQSPSSLSASVGDRVTITCQASQDIGSNLIWFQQKPGKAPKPMIYYATHLADGVPSRFSGSRSGTDYTLTISSLQPEDFATYYCLQYKQYPRTFGGGTKVEIK
notes: Humanized; label says IgG1K; also called W145

Biological target: T1, biotinylated human CTLA-4 (Example 3 …)
Assay: competition FACS: antibody mixed with biotinylated human CTLA-4, added to CD86-expressing cells (panel title W316-CHO-K1.hPro1.L2), bound CTLA-4 detected with streptavidin-PE [B]
Description: (§1) Both ELISA and FACS were used as the competition assays. In ELISA based competition assay, human CTLA-4 was coated on the plates, and the antibodies mixed with biotinylated ligands were added into the plate. The bound ligands were detected by HRP conjugated streptavidin.
(§2) Then the mixtures of antibody and CTLA-4 were added to the cells and incubated for 1 hour at 4° C. The cells were washed two times with 200 μL FACS buffer (DPBS containing 1% BSA). Streptavidin PE 1 to 333 diluted in FACS buffer was added to the cells and incubated at 4° C. for 1 hour.

Row | Binder | IC50 (read off the curve) [pM]
1 | B1 | ~20000
2 | B2 | ~300
3 | B3 | ~1000
4 | B4 | ~80

Biological target: T2, human CTLA-4 (Example 3 ELISAs, …)
Assay: ELISA, antibody titrated on human CTLA-4, OD450
Description: (§3) The antibodies were tested on CTLA-4-binding ELISA.
(§4) ELISA was used to test binding of anti-human CTLA-4 antibodies to human, murine and cynomolgus monkey CTLA-4 protein. A 96-well plate was coated with human CTLA-4.ECD-6×His (1.0 μg/mL), cynomoguls monkey CTLA-4.ECD-6×His (0.5 μg/mL) or mouse CTLA-4.ECD-6×His (0.5 μg/mL) at 4° C. for 16-20 hours. After 1 hour blocking with 2% BSA in DBPS, testing antibodies, as well as positive and negative control antibodies were added to the plates and incubated at room temperature for 1 hour. The binding of the antibodies to the plates were detected by HRP-conjugated goat anti-human IgG antibody (1:5000 dilution) with 1 hour incubation. The color was developed by dispensing 100 μL of TMB substrate for 8 mins, and then stopped by 100 μL of 2N HCl.

Row | Binder | EC50 (read off the curve) [pM]
5 | B1 | ~40
6 | B2 | ~10
7 | B3 | ~40
8 | B4 | ~50

Biological target: T2, human CTLA-4 (Example 3 ELISAs, …)
Assay: competition ELISA: coated human CTLA-4, antibody mixed with biotinylated CD80, bound ligand detected with streptavidin-HRP [A) CD80]
Description: as §1

Row | Binder | IC50 (read off the curve) [pM]
9 | B2 | ~300
10 | B3 | ~700
11 | B4 | ~300

Biological target: T3, human CTLA-4.ECD-6×His
Assay: SPR, antibody captured on anti-human Fc, CTLA-4 ECD as analyte, 1:1 fit
Description: The binding kinetics of four antibodies were measured using SPR. The antibodies were captured on immobilized goat anti-human Fc, and then human CTLA-4 ECD at different concentration was injected orderly. The sensorgrams for reference channel and buffer channel were subtracted from the test sensorgrams. The data was used to fit in 1:1 binding analysis.
(§5) Biacore T200, Series S Sensor Chip CMS, Amine Coupling Kit, and 10×HBS-EP were purchased from GE Healthcare. […] In immobilization step, the activation buffer was prepared by mixing 400 mM EDC and 100 mM NHS immediately prior to injection. The CM5 sensor chip was activated for 420 s with the activation buffer. 30 μg/mL of goat anti-human IgG Fcγ antibody in 10 mM NaAc (pH 4.5) was then injected to Fc1-Fc4 channels for 200 s at a flow rate of 5 μL/min. The chip was deactivated by 1 M ethanolamine-HCl (GE). Then the antibodies were captured on the chip. Briefly, 4 μg/mL antibodies in running buffer (HBS-EP+) was injected individually to Fc3 channel for 30 s at a flow rate of 10 μL/min. […] Regeneration buffer (10 mM Glycine pH 1.5) was injected at 10 μL/min for 30 s following every dissociation phase.

Row | Binder | Kd [pM] | koff [s⁻¹] | kon [M⁻¹ s⁻¹]
12 | B1 | 100 | 6.97e-05 | 695000
13 | B2 | 2080 | 0.0165 | 7.93e+06
14 | B3 | 208 | 0.000148 | 709000
15 | B4 | 68 | 0.000125 | 1.85e+06

Biological target: T4, full length human CTLA-4 on cells
Assay: FACS on CTLA-4-expressing cell line

Row | Binder | EC50 [pM]
16 | B3 | 3250
17 | B4 | 1260

Biological target: T1, biotinylated human CTLA-4 (Example 3 …)
Assay: competition FACS: antibody mixed with biotinylated human CTLA-4, added to CD80-expressing cells (panel title W316-CHO-K1.hPro1.L1), bound CTLA-4 detected with streptavidin-PE [A]
Description: as §1, §2

Row | Binder | IC50 (read off the curve) [pM]
18 | B2 | ~1000

Biological target: T2, human CTLA-4 (Example 3 ELISAs, …)
Assay: competition ELISA: coated human CTLA-4, antibody mixed with biotinylated CD86, bound ligand detected with streptavidin-HRP [B) CD86]
Description: as §1
Plates were coated with human CTLA-4.ECD.hFc (0.5 μg/mL) at 4° C. for 16-20 hours. […] After washing three times with PBS containing 0.05% Tween 20, biotinylated anti-His tag antibody was 1:2000 diluted and added. The plates were incubated at room temperature for 1 hour. The bound ligands were detected by HRP conjugated streptavidin (1:20000).

Row | Binder | IC50 (read off the curve) [pM]
19 | B1 | ~500
20 | B2 | ~400
21 | B3 | ~800
22 | B4 | ~400

Biological target: T6, murine CTLA-4 (Example 3 ELISA, construct not stated) (mouse, UniProt P09793 36-161, limits assumed)
T6 construct: also called mouse CTLA-4
Assay: ELISA, antibody titrated on mouse CTLA-4, OD450
Description: as §3, §4

Row | Binder | binding result
23 | B1 | no binding (tested: about 20 nM)
24 | B2 | no binding (tested: about 20 nM)
25 | B4 | no binding (tested: about 20 nM)

Biological target: T5, monkey CTLA-4 (Example 3 ELISA, …)
Assay: ELISA, antibody titrated on cyno CTLA-4, OD450
Description: as §3, §4

Row | Binder | EC50 (read off the curve) [pM]
26 | B1 | ~100
27 | B2 | ~100
28 | B3 | ~100
29 | B4 | ~80

Biological target: T6, murine CTLA-4 (Example 3 ELISA, …)
Assay: ELISA; ELISA, murine CTLA-4
Description: as §3, §4

Row | Binder | EC50 [pM]
30 | B3 | 10

Biological target: T7, cynomolgus monkey CTLA-4 ECD-6×His (cynomolgus monkey)
T7 construct: extracellular domain; Bought; also called cynomoguls monkey CTLA-4.ECD-6×His
Assay: SPR, antibody captured on anti-human Fc, CTLA-4.ECD-6×His as analyte, 1:1 fit
Description: as §5
(§6) The binding kinetics of these antibodies were measured using SPR. The antibodies were captured on immobilized anti-human Fc and CTLA-4-ECD at different concentration was injected orderly. The sensorgrams for reference channel and buffer channel were subtracted from the test sensorgrams. The data was used for 1:1 binding analysis on human, monkey and mouse CTLA-4.ECD-6×His.

Row | Binder | Kd [pM] | koff [s⁻¹] | kon [M⁻¹ s⁻¹]
31 | B2 | 355 | 0.00377 | 1.06e+07
32 | B3 | 369 | 0.000107 | 291000
33 | B4 | 87.2 | 0.000109 | 1.25e+06
34 | B5 | 598 | 0.00271 | 4.52e+06

Biological target: T8, Murine CTLA-4.ECD-6×His (mouse, UniProt P09793 36-161)
T8 construct: extracellular domain; Bought; also called mouse CTLA-4.ECD-6×His; mouse CTLA-4 ECD
Assay: as above
Description: as §5, §6

Row | Binder | Kd [pM] | koff [s⁻¹] | kon [M⁻¹ s⁻¹]
35 | B3 | 906 | 0.000228 | 251000

Biological target: T3, human CTLA-4.ECD-6×His
Assay: as above
Description: as §5, §6

Row | Binder | Kd [pM] | koff [s⁻¹] | kon [M⁻¹ s⁻¹]
36 | B2 | 2080 | 0.0165 | 7.93e+06
37 | B3 | 208 | 0.000148 | 709000
38 | B4 | 68 | 0.000125 | 1.85e+06
39 | B5 | 1840 | 0.0135 | 7.37e+06
